Each binder was assayed against bovine TAP1 (bovine) (assay: cell-based or functional assay).

Row | Binder | MHC-I surface expression on infected MDBK cells (FACS) | inhibition of TAP-mediated peptide transport in infected MDBK cells at 8 hpi (FITC peptide, FACS) | MHC-I surface expression relative to BHV-1 wt-infected MDBK cells | peptide transport at 8 hpi relative to BHV-1 wt-infected MDBK cells
1 | BHV-1 wt UL49.5 (glycoprotein N) (other) DPLLDAMRREGAMDFWSAGCYARGVPLSEPPQALVVFYVALTAVMVAVALYAYGLCFRLMGASGPNKKESRGRG | 36.2% | 84% |  | 
2 | BHV-1 UL49.5Δ30-32 CT-null (other) DPLLDAMGAMDFWSAGCYARGVPLSEPPQALVVFYVALTAVMVAVALYAYGLCF | 88.6% | 7% | 2.5 fold | ~6 fold
3 | BHV-1 UL49.5 30AAA32 CT-null (other) DPLLDAMAAAGAMDFWSAGCYARGVPLSEPPQALVVFYVALTAVMVAVALYAYGLCF | 89.1% | 10% | 2.5 fold | ~6 fold
4 | BHV-1 UL49.5Δ30-32 (other) DPLLDAMGAMDFWSAGCYARGVPLSEPPQALVVFYVALTAVMVAVALYAYGLCFRLMGASGPNKKESRGRG | 74.3% | 23% | 2 fold | 4 fold
5 | BHV-1 UL49.5 30AAA32 (other) DPLLDAMAAAGAMDFWSAGCYARGVPLSEPPQALVVFYVALTAVMVAVALYAYGLCFRLMGASGPNKKESRGRG | 75% | 27% | 2 fold | 4 fold
6 | BHV-1 UL49.5 CT-null (other) DPLLDAMRREGAMDFWSAGCYARGVPLSEPPQALVVFYVALTAVMVAVALYAYGLCF | 49.6% | 63% | 1.3 fold | 2.5 fold
